Assay results from patent publication US20230279126A1 (published 2023).
Changes are numbered by the printed parent chain.

B1: hIL12Rb1_VHH1 (VHH)
VHH: QVQLQESGGGSVQAGGSLRLSCVASGYGYCGYDMSWYRQAPGKEREFVALITSDRSISYEDSVKARFIISRDNAANTGYLDMTRLTPDDTAIYYCKTSAAARESSWCRSRYRVASWGQGTQVTVSS
notes: Phagemid clone with his-tag, periplasmic extract
B2: mIL23R VHH12 (VHH)
VHH: QVQLQESGGGSVQAGGSLRLSCAASGYTYSSCTMGWYRQAPGKERELVSMLISDGSTFYADSVKGRFTFSQENAKNTVYLQMNSLKPEDTAMYYCGCATLGSRTVWGQGTQVTVSS
notes: as for B1
B3: mIL23R VHH27 (VHH)
VHH: B2 VHH with F69S
notes: as for B1
B4: mIL23R VHH10 (VHH)
VHH: B2 VHH with Y27D, E46D, I52M, S53G, V105I
notes: as for B1
B5: mIL23R VHH1 (VHH)
VHH: B2 VHH with N73Y
notes: as for B1
B6: mIL23R VHH11 (VHH)
VHH: B2 VHH with N76S
notes: as for B1
B7: mIL23R VHH15 (VHH)
VHH: B2 VHH with L51V, I52F, V105I
notes: as for B1
B8: mIL23R VHH36 (VHH)
VHH: B2 VHH with Y27D, E46D, L51V, I52F, V105I
notes: as for B1
B9: mIL23R VHH8 (VHH)
VHH: B2 VHH with A23T, G26R, L51V, I52F, V105I
notes: as for B1
B10: mIL23R VHH25 (VHH)
VHH: B2 VHH with Y94F
notes: as for B1
B11: mIL23R VHH16 (VHH)
VHH: B2 VHH with Y27D, E46D, I52M, S53G, S84N, V105I
notes: as for B1
B12: mIL23R VHH6 (VHH)
VHH: QVQLQESGGGSVQAGGSLRLSCAASGYTSGNYWMGWFRQAPGKEREGVATLWTGGASTFYGDSVKGRFTISRDNFKNTLYLQMNSLKVEDTAMYYCAADPALRLGANILRPAEYKYWGQGTQVTVSS
notes: as for B1
B13: mIL23R VHH26 (VHH)
VHH: QVQLQESGGGSVQAGGSLRLSCAASGYTFCMAWFRQAPGKEREGVARFYTRDGYTYYSDSVKGRFTISQNNAKNTLYLQMNSLKSEDTAMYYCAADLTRCSSNKNDFRYWGQGTQVTVSS
notes: as for B1
B14: mIL23R VHH5 (VHH)
VHH: B13 VHH with T98A
notes: as for B1
B15: mIL23R VHH24 (VHH)
VHH: B13 VHH with A24V, D59G
notes: as for B1
B16: mIL23R VHH43 (VHH)
VHH: B13 VHH with N70D
notes: as for B1
B17: mIL23R VHH22 (VHH)
VHH: B13 VHH with G53S
notes: as for B1
B18: mIL23R VHH4 (VHH)
VHH: QVQLQESGGGSVQAGGSLRLSCAASGYTYSNNCMGWFRQAPGKDRERIANIYTGGGRTTYADSVKGRFTISQDSAKSTVYLQMNSLKPEDTAMYYCAAGSCGSARSEYSYWGQGTQVTVSS
notes: as for B1
B19: mIL23R VHH3 (VHH)
VHH: QVQLQESGGGSVQAGGSLRLSCTASVNTYCEYNMSWYRQAPGKEREFVSGVDSDGSTRYSESVKGRFTISQDNAKNTMYLQMNGLKPEDTAMYYCKTYVCTFCSGNSCYYEYKYYYEGQGTQVTVSS
notes: as for B1
B20: mIL23R VHH18 (VHH)
VHH: QVQLQESGGGLVQPGGSLRLSCAASGFTFRLTAMRWVRQAPGKGLEWVSGIDSRGSTIYADSVKGRFTISKDNAKNTLYLQLNSLKTEDTAMYYCAQGVYGDTYSGSQGTQVTVSS
notes: as for B1
B21: mIL23R VHH31 (VHH)
VHH: B20 VHH with K71R
notes: as for B1
B22: mIL23R VHH13 (VHH)
VHH: B20 VHH with A24T, T32A
notes: as for B1
B23: mIL23R VHH2 (VHH)
VHH: B20 VHH with L11S, P14A, R19T, A23T, S25P, T32A
notes: as for B1
B24: mIL23R VHH44 (VHH)
VHH: B20 VHH with T32S, L45F
notes: as for B1
B25: mIL23R VHH42 (VHH)
VHH: B20 VHH with R30S, L31N, T32Y
notes: as for B1
B26: mIL23R VHH46 (VHH)
VHH: B20 VHH with T32S, N73D
notes: as for B1
B27: mIL23R VHH23 (VHH)
VHH: B20 VHH with T28N, T32Y, L45V, R54G
notes: as for B1
B28: mIL23R VHH40 (VHH)
VHH: B20 VHH with T87S
notes: as for B1
B29: mIL23R VHH28 (VHH)
VHH: B20 VHH with K71R, T90A
notes: as for B1
B30: mIL23R VHH45 (VHH)
VHH: B20 VHH with T32S, K64E
notes: as for B1
B31: mIL23R VHH30 (VHH)
VHH: B20 VHH with Q108L
notes: as for B1
B32: mIL23R VHH9 (VHH)
VHH: B20 VHH with A24T, L45V, R54A, L82M
notes: as for B1
B33: mIL23R VHH34 (VHH)
VHH: B20 VHH with Y104H
notes: as for B1
B34: mIL23R VHH19 (VHH)
VHH: B20 VHH with T32S
notes: as for B1
B35: mIL23R VHH17 (VHH)
VHH: B20 VHH with L11S, P14A
notes: as for B1
B36: mIL23R VHH29 (VHH)
VHH: QVQLQESGGGLVQPGGSLRLSCAASGFTFSTSAMTWVRQAPGKGLDWVSGIDSGGTTVYADSVKGRFTISKDNAKNTLYLQMNSLKTEDTAVYYCATGLPWGNTWRTRGQGTQVTVSS
notes: as for B1
B37: mIL23R VHH41 (VHH)
VHH: B36 VHH with S21T
notes: as for B1
B38: mIL23R VHH20 (VHH)
VHH: B36 VHH with T31S, F67A, S70L
notes: as for B1
B39: mIL23R VHH38 (VHH)
VHH: B36 VHH with T104I
notes: as for B1
B40: mIL23R VHH33 (VHH)
VHH: B36 VHH with A23T, A24T, T31S, R108T
notes: as for B1
B41: mIL23R VHH14 (VHH)
VHH: B36 VHH with S30R, K71R, N73S, T97M
notes: as for B1
B42: mIL23R VHH21 (VHH)
VHH: B36 VHH with A24T, T31S, R108T
notes: as for B1
B43: mIL23R VHH32 (VHH)
VHH: B36 VHH with Q13R, T31R, K71R, N73S, T97I
notes: as for B1
B44: mIL23R VHH7 (VHH)
VHH: B36 VHH with T31R, K71R, N73S, T97I
notes: as for B1
B45: mIL23R VHH37 (VHH)
VHH: B36 VHH with A24T, T31S, S32G, R108T
notes: as for B1
B46: mIL23R VHH35 (VHH)
VHH: B36 VHH with S21A, A23S, T31S, F67A, S70L
notes: as for B1
B47: mIL23R VHH39 (VHH)
VHH: B36 VHH with T31R, K71R, N73S, S84G, T97I
notes: as for B1

target: T1, extracellular domain of human IL12RB1 (hIL12Rb1 ECD) (human, UniProt P42701 24-545); assay: periplasmic extract ELISA (PE-ELISA) of phage clones, colorimetric
T1 construct: The immunogen was a fusion of the ECD with the human IgG1 hinge and Fc; also called IL12Rβ1; CD212
Summary of the method: (§1)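 VHH domains were obtained from camels immunized sequentially with human and mouse receptor extracellular domain–Fc fusion proteins, then cloned with a his-tag into a phagemid in E. coli. The phage library was panned over several rounds on the human or mouse extracellular domain, and single clones were checked for selective binding by colorimetric periplasmic extract ELISA.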

Binder | binding result
B1 | binds

target: T2, extracellular domain of mouse IL23R (mIL23R ECD) (mouse, UniProt Q8K4B4 24-374); assay: as above
T2 construct: The immunogen was an ECD-human IgG1 hinge-Fc fusion
T2 sequence: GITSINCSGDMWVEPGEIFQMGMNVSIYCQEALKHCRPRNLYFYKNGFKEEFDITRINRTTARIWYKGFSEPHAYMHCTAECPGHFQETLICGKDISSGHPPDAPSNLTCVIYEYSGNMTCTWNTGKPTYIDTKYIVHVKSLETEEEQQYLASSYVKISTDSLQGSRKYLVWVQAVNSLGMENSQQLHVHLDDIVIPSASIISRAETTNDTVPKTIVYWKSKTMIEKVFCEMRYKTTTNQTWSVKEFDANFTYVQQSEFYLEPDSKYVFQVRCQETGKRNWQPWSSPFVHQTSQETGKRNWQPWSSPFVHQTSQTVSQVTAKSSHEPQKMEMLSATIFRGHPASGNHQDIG
Summary of the method: as §1

Binder | binding result
B2 | binds
B3 | binds
B4 | binds
B5 | binds
B6 | binds
B7 | binds
B8 | binds
B9 | binds
B10 | binds
B11 | binds
B12 | binds
B13 | binds
B14 | binds
B15 | binds
B16 | binds
B17 | binds
B18 | binds
B19 | binds
B20 | binds
B21 | binds
B22 | binds
B23 | binds
B24 | binds

Binder | binding result
B25 | binds
B26 | binds
B27 | binds
B28 | binds
B29 | binds
B30 | binds
B31 | binds
B32 | binds
B33 | binds
B34 | binds
B35 | binds
B36 | binds
B37 | binds
B38 | binds
B39 | binds
B40 | binds
B41 | binds
B42 | binds
B43 | binds
B44 | binds
B45 | binds
B46 | binds
B47 | binds
